Reference: publication PMC3735941, “Clostridium scindens: a human gut microbe with a high potential to convert glucocorticoids into androgens” (Journal of Lipid Research, 2013)

Assays:
Assay in all cases: purified protein
Assay type in all cases: biochemical, [Clostridium] scindens
[1] = system: C[C@]12CCC(=O)C=C1CC[C@@H]1[C@@H]2C(=O)C[C@@]2(C)[C@H]1CC[C@]2(O)[C@@H](O)CO; settings: co-substrate not printed for this constant (oxidative direction, NAD+ presumed), 20 mM sodium phosphate pH 7.0, 0.1 M NaCl, 20% glycerol, 10 mM 2-mercaptoethanol
[2] = system: C[C@]12CCC(=O)C=C1CC[C@@H]1[C@@H]2[C@@H](O)C[C@@]2(C)[C@H]1CC[C@]2(O)C(=O)CO; settings: NADH co-substrate (150 μM in standard assay), 20 mM sodium phosphate pH 7.0, 0.1 M NaCl, 20% glycerol, 10 mM 2-mercaptoethanol, reductive direction
[3] = system: C[C@]12CCC(=O)C=C1CC[C@@H]1[C@@H]2C(=O)C[C@@]2(C)[C@H]1CC[C@]2(O)C(=O)CO; settings: NADH co-substrate (150 μM in standard assay), 20 mM sodium phosphate pH 7.0, 0.1 M NaCl, 20% glycerol, 10 mM 2-mercaptoethanol, reductive direction

## DesC (20α-HSDH; desC-ST) ([Clostridium] scindens ATCC 35704)
[1]
  Km: 4.54 µM
[2]
  Km: 1.46 µM
[3]
  Km: 5.35 µM
